± gives the standard deviation of the averaged measurements.
Assay: total protein half-life in vivo (active degradation + dilution); higher = more stable protein
[1] = E. coli NCM3722 delta-clpP delta-lon delta-hslV, growth: N-lim chemostat, doubling time 6 h
[2] = E. coli NCM3722 delta-clpP, growth: N-lim chemostat, doubling time 6 h
[3] = E. coli NCM3722 delta-hslV, growth: N-lim chemostat, doubling time 6 h
[4] = E. coli NCM3722 delta-lon, growth: N-lim chemostat, doubling time 6 h
[5] = E. coli NCM3722 delta-smpB, growth: N-lim chemostat, doubling time 6 h
[6] = wild type E. coli NCM3722, growth: C-lim chemostat, doubling time 3 h
[7] = wild type E. coli NCM3722, growth: C-lim chemostat, doubling time 6 h
[8] = wild type E. coli NCM3722, growth: C-lim chemostat, doubling time 12 h
[9] = wild type E. coli NCM3722, growth: N-lim chemostat, doubling time 6 h
[10] = wild type E. coli NCM3722, growth: N-lim chemostat, doubling time 12 h
[11] = wild type E. coli NCM3722, growth: P-lim chemostat, doubling time 6 h
[12] = wild type E. coli NCM3722, growth: P-lim chemostat, doubling time 12 h

| Sequence | total protein half-life in vivo [1] [h] | total protein half-life in vivo [2] [h] | total protein half-life in vivo [3] [h] | total protein half-life in vivo [4] [h] | total protein half-life in vivo [5] [h] | total protein half-life in vivo [6] [h] | total protein half-life in vivo [7] [h] | total protein half-life in vivo [8] [h] | total protein half-life in vivo [9] [h] | total protein half-life in vivo [10] [h] | total protein half-life in vivo [11] [h] | total protein half-life in vivo [12] [h] |
| --- | --- | --- | --- | --- | --- | --- | --- | --- | --- | --- | --- | --- |
| MATIDSMNKDTTRLSDGPDWTFDLLDVYLAEIDRVAKLYRLDTYPHQIEVITSEQMMDAYSSVGMPINYPHWSFGKKFIETERLYKHGQQGLAYEIVINSNPCIAYLMEENTITMQALVMAHACYGHNSFFKNNYLFRSWTDASSIVDYLIFARKYITECEERYGVDEVERLLDSCHALMNYGVDRYKRPQKISLQEEKARQKSREEYLQSQVNMLWRTLPKREEEKTVAEARRYPSEPQENLLYFMEKNAPLLESWQREILRIVRKVSQYFYPQKQTQVMNEGWATFWHYTILNHLYDEGKVTERFMLEFLHSHTNVVFQPPYNSPWYSGINPYALGFAMFQDIKRICQSPTEEDKYWFPDIAGSDWLETLHFAMRDFKDESFISQFLSPKVMRDFRFFTVLDDDRHNYLEISAIHNEEGYREIRNRLSSQYNLSNLEPNIQIWNVDLRGDRSLTLRYIPHNRAPLDRGRKEVLKHVHRLWGFDVMLEQQNEDGSIELLERCPPRMGNL | 4.27 ± 0.81 | 2.4 ± 0.062 | 1.59 ± 0.2 | 1.41 ± 0.15 | 1.49 ± 0.034 | 1.05 ± 0.18 | 1.49 ± 0.059 | 1.94 ± 0.49 | 1.48 ± 0.34 | 1.65 ± 0.15 | 1.48 ± 0.55 | 2.27 ± 0.67 |
| MKTAKEYSDTAKREVSVDVDALLAAINEISESEVHRSQNDSEHVSVDGREYHTWRELADAFELDIHDFSVSEVNR | 4.23 ± 0.73 | 1.58 | – | 0.678 | 0.551 | – | – | 1.38 | – | 1.03 | – | – |
| MRYHGDMLLTTPVISTLKQNYPDAKIDMLLYQDTIPILSENPEINALYGISNKGAGTFDKIKNVLSLIKTLRANNYDLVINLTDQWMVALLVRCLPARMKISQLYGHRQHGIWKKSFTHLAPIHGTHIVERNLSVLEPLGITDFYTDTTMSYAEDCWKKMRRELDALGVKDHYVVIQPTARQIFKCWDNDKFSKVIDALQQRGYQVVLTCGPSADDLACVDEIARGCETKPITGLAGKTRFPELGALIDHAVLFIGVDSAPGHIAAAVKTPVISLFGATDHVFWRPWTENIIQFWAGNYQKMPTRHELDRNKKYLSVIPAEDVIAATEKLLPEDAPSADRNAQL | 6.088 ± 0.042 | 6.21 ± 0.39 | 6.87 ± 0.63 | – | 4.85 ± 0.32 | 3.141 ± 0.0067 | 6.09 ± 0.63 | 11.7 ± 0.39 | 5.89 ± 0.19 | 11.9 ± 0.99 | 5.59 ± 0.42 | 11.3 ± 1.1 |
| MSLPSIPSFVLSGLLLICLPFSSFASATTSHISFSYAARQRMQNRARLLKQYQTHLKKQASYIVEGNAESKRALRQHNREQIKQHPEWFPAPLKASDRRWQALAENNHFLSSDHLHNITEVAIHRLEQQLGKPYVWGGTRPDKGFDCSGLVFYAYNKILEAKLPRTANEMYHYRRATIVANNDLRRGDLLFFHIHSREIADHMGVYLGDGQFIESPRTGETIRISRLAEPFWQDHFLGARRILTEETIL | – | – | – | – | – | – | – | 3.06 | – | – | – | – |
| MDIIFYHPTFDTQWWIEALRKAIPQARVRAWKSGDNDSADYALVWHPPVEMLAGRDLKAVFALGAGVDSILSKLQAHPEMLNPSVPLFRLEDTGMGEQMQEYAVSQVLHWFRRFDDYRIQQNSSHWQPLPEYHREDFTIGILGAGVLGSKVAQSLQTWRFPLRCWSRTRKSWPGVQSFAGREELSAFLSQCRVLINLLPNTPETVGIINQQLLEKLPDGAYLLNLARGVHVVEDDLLAALDSGKVKGAMLDVFNREPLPPESPLWQHPRVTITPHVAAITRPAEAVEYISRTIAQLEKGERVCGQVDRARGY | 5.02 ± 0.051 | 4.58 ± 0.51 | 5.71 ± 1.3 | 4.67 ± 0.34 | 4.43 ± 0.24 | 2.69 ± 0.43 | 5.64 ± 0.55 | 10.3 ± 1.4 | 4.45 ± 0.25 | 7.3 ± 0.49 | 5.821 ± 0.027 | 11 ± 0.45 |
| MERNKLARQIIDTCLEMTRLGLNQGTAGNVSVRYQDGMLITPTGIPYEKLTESHIVFIDGNGKHEEGKLPSSEWRFHMAAYQSRPDANAVVHNHAVHCTAVSILNRSIPAIHYMIAAAGGNSIPCAPYATFGTRELSEHVALALKNRKATLLQHHGLIACEVNLEKALWLAHEVEVLAQLYLTTLAITDPVPVLSDEEIAVVLEKFKTYGLRIEE [P0AB87] | – | – | – | – | – | 2.81 ± 0.01 | 4.78 ± 0.5 | 7.71 ± 0.3 | – | – | – | – |
| MSNTPIELKGSSFTLSVVHLHEAEPKVIHQALEDKIAQAPAFLKHAPVVLNVSALEDPVNWSAMHKAVSATGLRVIGVSGCKDAQLKAEIEKMGLPILTEGKEKAPRPAPTPQAPAQNTTPVTKTRLIDTPVRSGQRIYAPQCDLIVTSHVSAGAELIADGNIHVYGMMRGRALAGASGDRETQIFCTNLMAELVSIAGEYWLSDQIPAEFYGKAARLQLVENALTVQPLN | 5.53 ± 0.29 | 5 ± 0.28 | 5.32 ± 0.053 | 5.84 ± 0.27 | 4.34 ± 0.23 | 2.977 ± 0.015 | 5.72 ± 0.27 | 9.85 ± 0.83 | 5.25 ± 0.7 | 8.75 ± 0.6 | 5.44 ± 0.24 | 11.2 ± 1 |
| MSKAGKITAAISGAFLLLIVVAIILIATFDWNRLKPTINQKVSAELNRPFAIRGDLGVVWERQKQETGWRSWVPWPHVHAEDIILGNPPDIPEVTMVHLPRVEATLAPLALLTKTVWLPWIKLEKPDARLIRLSEKNNNWTFNLANDDNKDANAKPSAWSFRLDNILFDQGRIAIDDKVSKADLEIFVDPLGKPLPFSEVTGSKGKADKEKVGDYVFGLKAQGRYNGEPLTGTGKIGGMLALRGEGTPFPVQADFRSGNTRVAFDGVVNDPMKMGGVDLRLKFSGDSLGDLYELTGVLLPDTPPFETDGRLVAKIDTEKSSVFDYRGFNGRIGDSDIHGSLVYTTGKPRPKLEGDVESRQLRLADLGPLIGVDSGKGAEKSKRSEQKKGEKSVQPAGKVLPYDRFETDKWDVMDADVRFKGRRIEHGSSLPISDLSTHIILKNADLRLQPLKFGMAGGSIAANIHLEGDKKPMQGRADIQARRLKLKELMPDVELMQKTLGEMNGDAELRGSGNSVAALLGNSNGNLKLLMNDGLVSRNLMEIVGLNVGNYIVGAIFGDDEVRVNCAAANLNIANGVARPQIFAFDTENALINVTGTASFASEQLDLTIDPESKGIRIITLRSPLYVRGTFKNPQAGVKAGPLIARGAVAAALATLVTPAAALLALISPSEGEANQCRTILSQMKK | 6.24 ± 0.57 | 5.9 ± 0.17 | 6.13 ± 0.039 | 6.42 ± 0.4 | 5.438 ± 0.026 | 3.09 ± 0.22 | 5.72 ± 0.19 | 10.9 ± 1.2 | 5.57 ± 0.16 | 10.9 ± 0.42 | 5.49 ± 0.3 | 9.41 ± 0.73 |
